According to US20080226682A1, “Immunoactive Compositions for Improved Oral Delivery of Vaccines and Therapeutic Agents” (PerOs Systems Technologies, Inc., priority 2007, published 2008):
“Also recorded” adds a separate entry of the source.

Key:
bovine immune cells = experiment: Leukocyte mitogenic response (BrdU-based ELISA, stimulation index); assay type: cell-based; details: purified lectin at mitogen concentration (5-40 μg/mL), day 4
Sheep PBMC = experiment: Immune cell proliferation, tetrazolium colorimetric reading (Stimulation Index)
feline immune cells = experiment: Leukocyte mitogenic response (BrdU-based ELISA, stimulation index); assay type: cell-based; details: purified lectin at mitogen concentration (5-40 μg/mL), day 4
Mouse Splenocytes = experiment: Immune cell proliferation, tetrazolium colorimetric reading (Stimulation Index); assay type: cell-based, BALB/c mice
Chicken PBMC = experiment: as above
salmon immune cells = experiment: Leukocyte mitogenic response (BrdU-based ELISA, stimulation index); assay type: cell-based; details: purified lectin at mitogen concentration (5-40 μg/mL), day 4
human immune cells = experiment: as above; assay type: cell-based; details: purified lectin at mitogen concentration (5-40 μg/mL), day 4
Feline PBMC = experiment: Immune cell proliferation, tetrazolium colorimetric reading (Stimulation Index)
Calf PBMC = experiment: as above
swine immune cells = experiment: Leukocyte mitogenic response (BrdU-based ELISA, stimulation index); assay type: cell-based; details: purified lectin at mitogen concentration (5-40 μg/mL), day 4
Text: (§1) Lymphocytes are a representative immune system prototypic cell that may be used in in vitro assays for immunological effects of lectins, saponins and other components of natural plant or animal products. Exemplary lymphocytes for representative target species may be obtained and used in the Examples disclosed herein. The effects of various compositions on lymphocyte proliferation is examined using a standard tetrazolium based colorimetric assay (MTT). An Alamar blue-based colorimetric assay gave equivalent results to [^3H]-thymidine incorporation assay. The MTT colorimetric assay has also been used in lymphocyte proliferation assays using chicken splenocytes. These and other known assays may be utilized in the methods disclosed herein.
(§2) In one non-limiting example, cells from anterior fish kidney are obtained by forcing the aseptically removed tissue through a 100 μm cell strainer into L-15 medium supplemented with 2% fetal bovine serum (FBS), 100 U mL^−1 penicillin, 100 μg mL^−1 streptomycin, and 10 U mL^−1 sodium heparin (Processing medium, PM). The single-cell suspension is removed from the settled tissue fragments and cells are pelleted by centrifugation at 500×g for 10 min at 4° C. […]
(§3) The number of viable kidney or blood leukocytes isolated from each fish is determined by trypan blue exclusion (0.1% trypan blue in PM), and the cells are pelleted as described above.
(§4) Mitogen concentrations used to stimulate the isolated leukocytes are as follows: 10 μg mL^−1 SBA, 10 μg mL^−1 PHA-E or PHA-L, 5 μg mL^−1 LBL, 20 μg mL^−1 LCA or LOA, 10 μg mL^−1 ConA, 40 ug mL^−1 PSA and 5 μg mL^−1 PNA. […] The mitogenic response is measured on the fourth day of incubation post-mitogen stimulation using a BrdU-based ELISA at room temperature as described (Gauthier, D. T. 2003). Stimulation index (SI) values are calculated as the replicate mean optical density for a given set of mitogen-treated leukocytes divided by the replicate mean optical density of the associated mitogen free (control) leukocytes. […]

Trout HK Cells = experiment: Immune cell proliferation, tetrazolium colorimetric reading (Stimulation Index); assay type: cell-based
equine immune cells = experiment: Leukocyte mitogenic response (BrdU-based ELISA, stimulation index); assay type: cell-based; details: purified lectin at mitogen concentration (5-40 μg/mL), day 4
Swine PBMC = experiment: Immune cell proliferation, tetrazolium colorimetric reading (Stimulation Index)
shrimp immune cells = experiment: Leukocyte mitogenic response (BrdU-based ELISA, stimulation index); assay type: cell-based; details: purified lectin at mitogen concentration (5-40 μg/mL), day 4
trout immune cells = experiment: as above; assay type: cell-based; details: purified lectin at mitogen concentration (5-40 μg/mL), day 4
Text: as §1, §2, §3, §4

canine immune cells = experiment: as above; assay type: cell-based; details: purified lectin at mitogen concentration (5-40 μg/mL), day 4

SBA: Soybean (Glycine max) Lectin
Immunomodulatory effect (stimulation index class) (bovine immune cells): + (between 1 and 4.9 is assigned a value of + (weak mitogen))
lowest concentration of lectins required for stimulation response above background (Sheep PBMC): 50 µg/mL
Immunomodulatory effect (stimulation index class) (feline immune cells): + (between 1 and 4.9 is assigned a value of + (weak mitogen))
lowest concentration of lectins required for stimulation response above background (Mouse Splenocytes): Negative
lowest concentration of lectins required for stimulation response above background (Chicken PBMC): Negative
Immunomodulatory effect (stimulation index class) (salmon immune cells): +++ (≧10 is assigned a value of +++ (strong mitogen))
Immunomodulatory effect (stimulation index class) (human immune cells): ++ (between 5 and 9.9 is assigned a value of ++ (moderate mitogen))
lowest concentration of lectins required for stimulation response above background (Feline PBMC): 1 μg/ml ug/ml
lowest concentration of lectins required for stimulation response above background (Calf PBMC): 50 µg/mL
Immunomodulatory effect (stimulation index class) (swine immune cells): −− (<1 is assigned a value of −− (anti-mitogenic))
lowest concentration of lectins required for stimulation response above background (Trout HK Cells): refractory; also recorded: Negative
Immunomodulatory effect (stimulation index class) (equine immune cells): −− (<1 is assigned a value of −− (anti-mitogenic))
lowest concentration of lectins required for stimulation response above background (Swine PBMC): 50 µg/mL

B1: PSA: small pea (Pisum sativum) lectin (protein, UniProt P02867 31-217; P02867 218-275, looked up)
Lectin beta chain: TETTSFLITKFSPDQQNLIFQGDGYTTKEKLTLTKAVKNTVGRALYSSPIHIWDRETGNVANFVTSFTFVINAPNSYNVADGFTFFIAPVDTKPQTGGGYLGVFNSAEYDKTTQTVAVEFDTFYNAAWDPSNRDRHIGIDVNSIKSVNTKSWKLQNGEEANVVIAFNAATNVLTVSLTYPNSLEEEN
Lectin alpha chain: VTSYTLSDVVSLKDVVPEWVRIGFSATTGAEYAAHEVLSWSFHSELSGTSSSKQAADA
Immunomodulatory effect (stimulation index class) (bovine immune cells): +++ (≧10 is assigned a value of +++ (strong mitogen))
Immunomodulatory effect (stimulation index class) (feline immune cells): −− (<1 is assigned a value of −− (anti-mitogenic))
Immunomodulatory effect (stimulation index class) (salmon immune cells): −− (<1 is assigned a value of −− (anti-mitogenic))
Immunomodulatory effect (stimulation index class) (human immune cells): ++ (between 5 and 9.9 is assigned a value of ++ (moderate mitogen))
Immunomodulatory effect (stimulation index class) (shrimp immune cells): +++ (≧10 is assigned a value of +++ (strong mitogen))
Immunomodulatory effect (stimulation index class) (trout immune cells): +++ (≧10 is assigned a value of +++ (strong mitogen))
Immunomodulatory effect (stimulation index class) (canine immune cells): + (between 1 and 4.9 is assigned a value of + (weak mitogen))
Immunomodulatory effect (stimulation index class) (equine immune cells): + (between 1 and 4.9 is assigned a value of + (weak mitogen))

B2: PNA: peanut (Arachis hypogaea) lectin (protein, UniProt P02872 24-273, looked up)
Galactose-binding lectin: AETVSFNFNSFSEGNPAINFQGDVTVLSNGNIQLTNLNKVNSVGRVLYAMPVRIWSSATGNVASFLTSFSFEMKDIKDYDPADGIIFFIAPEDTQIPAGSIGGGTLGVSDTKGAGHFVGVEFDTYSNSEYNDPPTDHVGIDVNSVDSVKTVPWNSVSGAVVKVTVIYDSSTKTLSVAVTNDNGDITTIAQVVDLKAKLPERVKFGFSASGSLGGRQIHLIRSWSFTSTLITTTRRSIDNNEKKIMNMASA
Immunomodulatory effect (stimulation index class) (bovine immune cells): + (between 1 and 4.9 is assigned a value of + (weak mitogen))
Immunomodulatory effect (stimulation index class) (feline immune cells): +++ (≧10 is assigned a value of +++ (strong mitogen))
Immunomodulatory effect (stimulation index class) (salmon immune cells): +++ (≧10 is assigned a value of +++ (strong mitogen))
Immunomodulatory effect (stimulation index class) (human immune cells): + (between 1 and 4.9 is assigned a value of + (weak mitogen))
Immunomodulatory effect (stimulation index class) (shrimp immune cells): −− (<1 is assigned a value of −− (anti-mitogenic))
Immunomodulatory effect (stimulation index class) (trout immune cells): −− (<1 is assigned a value of −− (anti-mitogenic))
Immunomodulatory effect (stimulation index class) (canine immune cells): ++ (between 5 and 9.9 is assigned a value of ++ (moderate mitogen))
Immunomodulatory effect (stimulation index class) (equine immune cells): ++ (between 5 and 9.9 is assigned a value of ++ (moderate mitogen))
